Assay results reported in patent US20200317768A1 (published 2020).

Molecular target: T1, cynomolgus monkey FcγRIIa1 extracellular domain, C-terminal His-tag (cynomolgus monkey)
T1 construct: also called cyno FcγRIIa1; cynoFcgRIIa1
T1 chain: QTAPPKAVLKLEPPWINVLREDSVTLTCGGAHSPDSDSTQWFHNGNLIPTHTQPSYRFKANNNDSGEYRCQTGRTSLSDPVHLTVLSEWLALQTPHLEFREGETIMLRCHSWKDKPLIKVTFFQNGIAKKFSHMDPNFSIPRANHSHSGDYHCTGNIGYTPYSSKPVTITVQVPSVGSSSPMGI
Test: SPR (Biacore); KD of SG1 / KD of variant;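 note: relative to parent M103205H795-SG1 carrying the SG1 human heavy chain constant region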

Row | Binder | KD fold (SG1 = 1) [fold]
1 | MS_M103205H795-SG1/M103202L889-SK1 (antibody, human IgG1, kappa, Parent of the Fc variants; also called MS1032LO06-SG1) heavy: not shown light: DIVMTQSPATLSLSPGERATLSCTSSQSVYHANWLSWFQQKPGQPPKLLIYWASTLAYGVPSRFSGSGSGTDFTLTISSLQPEDAATYYCAGGYGGGRYAFGQGTKVEIKRTVAAPSVFIFPPSDEQLKSGTASVVCLLNNFYPREAKVQWKVDNALQSGNSQESVTEQDSKDSTYSLSSTLTLSKADYEKHKVYACEVTHQGLSSPVTKSFNRGEC | 1
2 | M103205H795-MY105/M103202L889-SK1 (antibody, human IgG1, kappa, Substitutions introduced into M103205H795-SG1; expressed with M103202L889-SK1 as light chain) heavy: QVTLKESGPVLVKPTETLTLTCTVSGIDLSHDDISWVRQAPGKGLEWVGIISYAGSTYYASWAKGRLTISKDTSKNQVVLTMTNMDPVDTATYYCARGVPAYSHGGDLWGQGTLVTVSSASTKGPSVFPLAPSSKSTSGGTAALGCLVKDYFPEPVTVSWNSGALTSGVHTFPAVLQSSGLYSLSSVVTVPSSSLGTQTYICNVNHKPSNTKVDKKVEPKSCDKTHTCPPCPAPELLNGPVVFLFPPKPKDTLMISRTPEVTCVVVDVSEEDPEVKFNWYVDGVEVHNAKTKPREEQYNSTYRVVSVLTVLHQDWLNGKEYKCKVSNKALPAPIEKTISKAKGQPREPQVYTLPPSREEMTKNQVSLTCLVKGFYPSDIAVEWESNGQPENNYKTTPMVLDSDGSFFLYSKLTVDKSRWQQGNVFSCSVMHEALHNHYTQKSLSLSP light: DIVMTQSPATLSLSPGERATLSCTSSQSVYHANWLSWFQQKPGQPPKLLIYWASTLAYGVPSRFSGSGSGTDFTLTISSLQPEDAATYYCAGGYGGGRYAFGQGTKVEIKRTVAAPSVFIFPPSDEQLKSGTASVVCLLNNFYPREAKVQWKVDNALQSGNSQESVTEQDSKDSTYSLSSTLTLSKADYEKHKVYACEVTHQGLSSPVTKSFNRGEC | 2.7
3 | M103205H795-MY051/M103202L889-SK1 (antibody, human IgG1, kappa, Substitutions introduced into M103205H795-SG1; expressed with M103202L889-SK1 as light chain) heavy: QVTLKESGPVLVKPTETLTLTCTVSGIDLSHDDISWVRQAPGKGLEWVGIISYAGSTYYASWAKGRLTISKDTSKNQVVLTMTNMDPVDTATYYCARGVPAYSHGGDLWGQGTLVTVSSASTKGPSVFPLAPSSKSTSGGTAALGCLVKDYFPEPVTVSWNSGALTSGVHTFPAVLQSSGLYSLSSVVTVPSSSLGTQTYICNVNHKPSNTKVDKKVEPKSCDKTHTCPPCPAPELLNGPSVFLFPPKPKDTLMISRTPEVTCVVVDVSEEDGEVKFNWYVDGVEVHNAKTKPREEQYNSTYRVVSVLTVLHQDWLNGKEYKCKVSNKALPAPIEKTISKAKGQPREPQVYTLPPSREEMTKNQVSLTCLVKGFYPSDIAVEWESNGQPENNYKTTPPVLDSDGSFFLYSKLTVDKSRWQQGNVFSCSVMHEALHNHYTQKSLSLSP light: DIVMTQSPATLSLSPGERATLSCTSSQSVYHANWLSWFQQKPGQPPKLLIYWASTLAYGVPSRFSGSGSGTDFTLTISSLQPEDAATYYCAGGYGGGRYAFGQGTKVEIKRTVAAPSVFIFPPSDEQLKSGTASVVCLLNNFYPREAKVQWKVDNALQSGNSQESVTEQDSKDSTYSLSSTLTLSKADYEKHKVYACEVTHQGLSSPVTKSFNRGEC | 0.7
4 | M103205H795-MY001/M103202L889-SK1 (antibody, human IgG1, kappa, Substitutions introduced into M103205H795-SG1; expressed with M103202L889-SK1 as light chain) heavy: not shown light: DIVMTQSPATLSLSPGERATLSCTSSQSVYHANWLSWFQQKPGQPPKLLIYWASTLAYGVPSRFSGSGSGTDFTLTISSLQPEDAATYYCAGGYGGGRYAFGQGTKVEIKRTVAAPSVFIFPPSDEQLKSGTASVVCLLNNFYPREAKVQWKVDNALQSGNSQESVTEQDSKDSTYSLSSTLTLSKADYEKHKVYACEVTHQGLSSPVTKSFNRGEC | 1.1
5 | M103205H795-MY052/M103202L889-SK1 (antibody, human IgG1, kappa, Substitutions introduced into M103205H795-SG1; expressed with M103202L889-SK1 as light chain) heavy: QVTLKESGPVLVKPTETLTLTCTVSGIDLSHDDISWVRQAPGKGLEWVGIISYAGSTYYASWAKGRLTISKDTSKNQVVLTMTNMDPVDTATYYCARGVPAYSHGGDLWGQGTLVTVSSASTKGPSVFPLAPSSKSTSGGTAALGCLVKDYFPEPVTVSWNSGALTSGVHTFPAVLQSSGLYSLSSVVTVPSSSLGTQTYICNVNHKPSNTKVDKKVEPKSCDKTHTCPPCPAPELLNGPSVFLFPPKPKDTLMISRTPEVTCVVVDVSEEDPEVKFNWYVDGVEVHNAKTKPREEQYNSTYRVVSVLTVLHQDWLNGKEYKCKVSNKALPAPIEKTISKAKGQPREPQVYTLPPSREEMTKNQVSLTCLVKGFYPSDIAVEWESNGQPENNYKTTPMVLDSDGSFFLYSKLTVDKSRWQQGNVFSCSVMHEALHNHYTQKSLSLSP light: DIVMTQSPATLSLSPGERATLSCTSSQSVYHANWLSWFQQKPGQPPKLLIYWASTLAYGVPSRFSGSGSGTDFTLTISSLQPEDAATYYCAGGYGGGRYAFGQGTKVEIKRTVAAPSVFIFPPSDEQLKSGTASVVCLLNNFYPREAKVQWKVDNALQSGNSQESVTEQDSKDSTYSLSSTLTLSKADYEKHKVYACEVTHQGLSSPVTKSFNRGEC | 2.8
6 | M103205H795-MY048/M103202L889-SK1 (antibody, human IgG1, kappa, Substitutions introduced into M103205H795-SG1; expressed with M103202L889-SK1 as light chain) heavy: not shown light: DIVMTQSPATLSLSPGERATLSCTSSQSVYHANWLSWFQQKPGQPPKLLIYWASTLAYGVPSRFSGSGSGTDFTLTISSLQPEDAATYYCAGGYGGGRYAFGQGTKVEIKRTVAAPSVFIFPPSDEQLKSGTASVVCLLNNFYPREAKVQWKVDNALQSGNSQESVTEQDSKDSTYSLSSTLTLSKADYEKHKVYACEVTHQGLSSPVTKSFNRGEC | 2.3

Other lines, results leading:

Row | KD fold (SG1 = 1) [fold] | Binder
7 | 2.9 | M103205H795-MY101/M103202L889-SK1 (antibody, human IgG1, kappa, also called MS1032LO06-MY101) heavy: QVTLKESGPVLVKPTETLTLTCTVSGIDLSHDDISWVRQAPGKGLEWVGIISYAGSTYYASWAKGRLTISKDTSKNQVVLTMTNMDPVDTATYYCARGVPAYSHGGDLWGQGTLVTVSSASTKGPSVFPLAPSSKSTSGGTAALGCLVKDYFPEPVTVSWNSGALTSGVHTFPAVLQSSGLYSLSSVVTVPSSSLGTQTYICNVNHKPSNTKVDKKVEPKSCDKTHTCPPCPAPELLNGPSVFLFPPKPKDTLMISRTPEVTCVVVDVSEEDPEVKFNWYVDGVEVHNAKTKPREEQYNSTYRVVSVLTVLHQDWLNGKEYKCKVSNKALPKPIEKTISKAKGQPREPQVYTLPPSREEMTKNQVSLTCLVKGFYPSDIAVEWESNGQPENNYKTTPMVLDSDGSFFLYSKLTVDKSRWQQGNVFSCSVMHEALHNHYTQKSLSLSP light: DIVMTQSPATLSLSPGERATLSCTSSQSVYHANWLSWFQQKPGQPPKLLIYWASTLAYGVPSRFSGSGSGTDFTLTISSLQPEDAATYYCAGGYGGGRYAFGQGTKVEIKRTVAAPSVFIFPPSDEQLKSGTASVVCLLNNFYPREAKVQWKVDNALQSGNSQESVTEQDSKDSTYSLSSTLTLSKADYEKHKVYACEVTHQGLSSPVTKSFNRGEC
8 | 0.7 | M103205H795-MY050/M103202L889-SK1 (antibody, human IgG1, kappa, Substitutions introduced into M103205H795-SG1; expressed with M103202L889-SK1 as light chain) heavy: QVTLKESGPVLVKPTETLTLTCTVSGIDLSHDDISWVRQAPGKGLEWVGIISYAGSTYYASWAKGRLTISKDTSKNQVVLTMTNMDPVDTATYYCARGVPAYSHGGDLWGQGTLVTVSSASTKGPSVFPLAPSSKSTSGGTAALGCLVKDYFPEPVTVSWNSGALTSGVHTFPAVLQSSGLYSLSSVVTVPSSSLGTQTYICNVNHKPSNTKVDKKVEPKSCDKTHTCPPCPAPELLNGPSVFLFPPKPKDTLMISRTPEVTCVVVDVAEEDPEVKFNWYVDGVEVHNAKTKPREEQYNSTYRVVSVLTVLHQDWLNGKEYKCKVSNKALPAPIEKTISKAKGQPREPQVYTLPPSREEMTKNQVSLTCLVKGFYPSDIAVEWESNGQPENNYKTTPPVLDSDGSFFLYSKLTVDKSRWQQGNVFSCSVMHEALHNHYTQKSLSLSP light: DIVMTQSPATLSLSPGERATLSCTSSQSVYHANWLSWFQQKPGQPPKLLIYWASTLAYGVPSRFSGSGSGTDFTLTISSLQPEDAATYYCAGGYGGGRYAFGQGTKVEIKRTVAAPSVFIFPPSDEQLKSGTASVVCLLNNFYPREAKVQWKVDNALQSGNSQESVTEQDSKDSTYSLSSTLTLSKADYEKHKVYACEVTHQGLSSPVTKSFNRGEC
9 | 0.7 | M103205H795-MY047/M103202L889-SK1 (antibody, human IgG1, kappa, Substitutions introduced into M103205H795-SG1; expressed with M103202L889-SK1 as light chain) heavy: not shown light: DIVMTQSPATLSLSPGERATLSCTSSQSVYHANWLSWFQQKPGQPPKLLIYWASTLAYGVPSRFSGSGSGTDFTLTISSLQPEDAATYYCAGGYGGGRYAFGQGTKVEIKRTVAAPSVFIFPPSDEQLKSGTASVVCLLNNFYPREAKVQWKVDNALQSGNSQESVTEQDSKDSTYSLSSTLTLSKADYEKHKVYACEVTHQGLSSPVTKSFNRGEC
10 | 1.4 | M103205H795-MY115/M103202L889-SK1 (antibody, human IgG1, kappa, Substitutions introduced into M103205H795-SG1; expressed with M103202L889-SK1 as light chain) heavy: QVTLKESGPVLVKPTETLTLTCTVSGIDLSHDDISWVRQAPGKGLEWVGIISYAGSTYYASWAKGRLTISKDTSKNQVVLTMTNMDPVDTATYYCARGVPAYSHGGDLWGQGTLVTVSSASTKGPSVFPLAPSSKSTSGGTAALGCLVKDYFPEPVTVSWNSGALTSGVHTFPAVLQSSGLYSLSSVVTVPSSSLGTQTYICNVNHKPSNTKVDKKVEPKSCDKTHTCPPCPAPELLNGPSVFLFPPKPKDTLMISRTPEVTCVVVDVAEEDPEVKFNWYVDGVEVHNAKTKPREEQYNSTYRVVSVLTVLHQDWLNGKEYKCKVSNKALPAPIEKTISKAKGQPREPQVYTLPPSREEMTKNQVSLTCLVKGFYPSDIAVEWESNGQPENNYKTTPMVLDSDGSFFLYSKLTVDKSRWQQGNVFSCSVMHEALHNHYTQKSLSLSP light: DIVMTQSPATLSLSPGERATLSCTSSQSVYHANWLSWFQQKPGQPPKLLIYWASTLAYGVPSRFSGSGSGTDFTLTISSLQPEDAATYYCAGGYGGGRYAFGQGTKVEIKRTVAAPSVFIFPPSDEQLKSGTASVVCLLNNFYPREAKVQWKVDNALQSGNSQESVTEQDSKDSTYSLSSTLTLSKADYEKHKVYACEVTHQGLSSPVTKSFNRGEC
11 | 1.2 | M103205H795-MY049/M103202L889-SK1 (antibody, human IgG1, kappa, Substitutions introduced into M103205H795-SG1; expressed with M103202L889-SK1 as light chain) heavy: not shown light: DIVMTQSPATLSLSPGERATLSCTSSQSVYHANWLSWFQQKPGQPPKLLIYWASTLAYGVPSRFSGSGSGTDFTLTISSLQPEDAATYYCAGGYGGGRYAFGQGTKVEIKRTVAAPSVFIFPPSDEQLKSGTASVVCLLNNFYPREAKVQWKVDNALQSGNSQESVTEQDSKDSTYSLSSTLTLSKADYEKHKVYACEVTHQGLSSPVTKSFNRGEC
